In paper PMC9355956:

System: CC(C)C[C@H](NC(=O)[C@H](CCC(N)=O)NC(=O)[C@H](CCCCN)NC(=O)[C@H](CCCNC(=N)N)NC(=O)[C@@H]1CCCN1C(=O)[C@H](C)NC(=O)[C@H](CCCCN)NC(=O)CNC(=O)CNC(=O)[C@@H](NC(=O)[C@H](CO)NC(=O)[C@H](CCCCN)NC(=O)[C@H](CCCNC(=N)N)NC(=O)[C@H](C)NC(=O)[C@@H](NC(=O)[C@H](CCC(N)=O)NC(=O)[C@H](CCCCN(C)C)NC(=O)[C@@H](NC(=O)[C@H](CCCNC(=N)N)NC(=O)[C@H](C)N)[C@@H](C)O)[C@@H](C)O)[C@@H](C)O)C(=O)N[C@@H](C)C(=O)O
Test: purified protein, by the assay type
Conditions: other: substrate, 20 nM LSD1
Method: The activity of hSMOX, hPAOX, and LSD1 enzymes was measured using the HyPerBlu chemiluminescent reagent for the direct detection of the hydrogen peroxide product. […] Hydrogen peroxide product formation was monitored 30 min after the addition of HyPerBlu on a PHERAstar microplate reader (BMG LABTECH, Cary, NC). All compounds were spotted into the assay plates using Echo acoustic dispensing technology (BeckmanCoulter, Indianapolis, IN). Unless otherwise stated, all reactions were carried out in 384-well assay format.
2 µL/well of 2x substrate was dispensed into the assay plate followed by 2 µL/well of 2x enzyme to initiate the reactions. […] The data were fit to the 4-parameter IC50 equation in GraphPad Prism.
Briefly, 2.5 µL/well of the twofold substrate solutions prepared in buffer was added to the assay wells followed by 2.5 µL/well of the 2x enzyme to initiate the reactions.
The initial velocity data were fit to the Michaelis-Menten equation in GraphPad Prism. Y=Vmax*X/(Km+X) where Vmax is the maximal velocity, X is the substrate concentration and Km is the Michaelis-Menten constant. The kcat value was determined by dividing Vmax value by the enzyme concentration.

LSD1 (Homo sapiens)
Km: 3.8 ± 0.35 µM
